Assay results: publication PMC6436931, “Activation of the Endonuclease that Defines mRNA 3′ Ends Requires Incorporation into an 8-Subunit Core Cleavage and Polyadenylation Factor Complex” (Molecular Cell, 2019)

T1: Rna14;Rna15 (Saccharomyces cerevisiae;Saccharomyces …, UniProt P25298;P25299 1-677;1-296, |)
T1 sequence 1: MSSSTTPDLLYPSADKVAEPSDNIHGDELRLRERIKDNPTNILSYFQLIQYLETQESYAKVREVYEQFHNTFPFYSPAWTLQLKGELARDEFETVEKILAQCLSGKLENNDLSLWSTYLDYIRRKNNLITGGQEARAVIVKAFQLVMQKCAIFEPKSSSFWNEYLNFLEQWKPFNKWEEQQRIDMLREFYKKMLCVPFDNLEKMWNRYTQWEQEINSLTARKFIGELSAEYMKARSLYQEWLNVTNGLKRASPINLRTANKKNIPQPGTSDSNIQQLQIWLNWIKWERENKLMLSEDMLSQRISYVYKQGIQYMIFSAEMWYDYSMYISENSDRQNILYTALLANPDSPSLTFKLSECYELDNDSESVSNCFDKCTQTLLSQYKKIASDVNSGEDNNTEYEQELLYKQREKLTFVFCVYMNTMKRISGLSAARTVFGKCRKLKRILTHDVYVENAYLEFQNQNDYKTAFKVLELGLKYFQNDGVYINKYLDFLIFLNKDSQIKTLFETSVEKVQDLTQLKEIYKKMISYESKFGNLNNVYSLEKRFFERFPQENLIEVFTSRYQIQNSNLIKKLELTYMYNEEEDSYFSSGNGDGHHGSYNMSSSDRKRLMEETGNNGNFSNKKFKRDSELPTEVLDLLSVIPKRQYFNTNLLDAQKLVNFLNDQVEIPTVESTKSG
T1 sequence 2: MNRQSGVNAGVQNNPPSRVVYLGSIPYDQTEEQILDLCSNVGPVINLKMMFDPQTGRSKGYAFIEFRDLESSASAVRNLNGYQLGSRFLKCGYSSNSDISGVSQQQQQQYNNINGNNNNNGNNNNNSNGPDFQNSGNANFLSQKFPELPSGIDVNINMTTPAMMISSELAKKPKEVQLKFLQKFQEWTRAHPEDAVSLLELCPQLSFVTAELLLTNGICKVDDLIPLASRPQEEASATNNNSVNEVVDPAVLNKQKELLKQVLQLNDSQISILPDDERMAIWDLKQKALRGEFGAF

T2: Ysh1;Yjr141w (Saccharomyces cerevisiae;Saccharomyces …, UniProt Q06224;P47172 1-779;1-347, |)
T2 sequence 1: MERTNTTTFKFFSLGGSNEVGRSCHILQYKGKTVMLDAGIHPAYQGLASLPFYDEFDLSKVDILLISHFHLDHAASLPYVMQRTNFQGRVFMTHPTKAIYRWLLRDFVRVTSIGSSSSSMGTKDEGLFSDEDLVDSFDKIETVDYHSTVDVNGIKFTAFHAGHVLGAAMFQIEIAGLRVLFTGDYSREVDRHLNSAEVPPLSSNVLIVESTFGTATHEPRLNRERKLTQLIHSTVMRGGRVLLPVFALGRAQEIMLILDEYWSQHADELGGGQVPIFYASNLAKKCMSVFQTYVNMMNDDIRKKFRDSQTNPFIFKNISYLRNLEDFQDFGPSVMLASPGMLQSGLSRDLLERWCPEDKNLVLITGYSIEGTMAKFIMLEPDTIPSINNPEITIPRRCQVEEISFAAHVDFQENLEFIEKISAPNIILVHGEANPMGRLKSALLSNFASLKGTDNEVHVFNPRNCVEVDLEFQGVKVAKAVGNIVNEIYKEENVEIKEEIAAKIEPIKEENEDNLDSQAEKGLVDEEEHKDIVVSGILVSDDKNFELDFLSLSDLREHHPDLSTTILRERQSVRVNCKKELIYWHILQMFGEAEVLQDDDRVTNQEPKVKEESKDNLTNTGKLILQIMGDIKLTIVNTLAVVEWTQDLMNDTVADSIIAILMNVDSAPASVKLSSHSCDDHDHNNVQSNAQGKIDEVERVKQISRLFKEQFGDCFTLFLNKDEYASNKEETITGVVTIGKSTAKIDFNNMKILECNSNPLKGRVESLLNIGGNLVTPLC
T2 sequence 2: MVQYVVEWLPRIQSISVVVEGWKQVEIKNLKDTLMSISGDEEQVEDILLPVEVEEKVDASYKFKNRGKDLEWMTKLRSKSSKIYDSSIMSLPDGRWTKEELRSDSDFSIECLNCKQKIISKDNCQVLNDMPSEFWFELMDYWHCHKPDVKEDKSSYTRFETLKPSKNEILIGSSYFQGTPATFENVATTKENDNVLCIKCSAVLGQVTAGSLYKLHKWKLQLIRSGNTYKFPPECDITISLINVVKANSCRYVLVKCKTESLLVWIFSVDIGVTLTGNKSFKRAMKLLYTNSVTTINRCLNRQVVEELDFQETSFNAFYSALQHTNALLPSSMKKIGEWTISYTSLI

B1: C15 (ssRNA)
RNA: CCCCCCCCCCCCCCC
B2: U15 (ssRNA)
RNA: UUUUUUUUUUUUUUU
B3: G15 (ssRNA)
RNA: GGGGGGGGGGGGGGG
B4: CYC1f EMSA probe (ssRNA)
RNA: CGUUAUUUAUAUUUCAAAUUUUUCU
B5: CYC1d EMSA probe (ssRNA)
RNA: AAGAACGUUAUUUAUAUUUCAAAUUUUUCUUUUUU
B6: A15 (ssRNA)
RNA: AAAAAAAAAAAAAAA

molecular target: Rna14;Rna15;Pcf11;Clp1 (Saccharomyces cerevisiae;Saccharomyces …, UniProt P25298;P25299;P39081;Q08685 1-677;1-296;1-626;1-445, |||); test: EMSA; CF IA; EMSA: 50 nM RNA, 0.25-4.0 uM protein, protein diluted in 10 mM HEPES pH 7.9, 150 mM NaCl, 0.5 mM Mg(OAc)2, plus 1x loading dye (orange G, glycerol, EDTA); 30 min on ice; native 6% acrylamide/TBE PAGE; details: protein: recombinant;recombinant;recombinant;recombinant; tags: 6H;;6H;; chain copies: 2;2;1;1; label: 5'-FAM
Sequence (P39081 whole entry, chain 3 of 4, one chain of several): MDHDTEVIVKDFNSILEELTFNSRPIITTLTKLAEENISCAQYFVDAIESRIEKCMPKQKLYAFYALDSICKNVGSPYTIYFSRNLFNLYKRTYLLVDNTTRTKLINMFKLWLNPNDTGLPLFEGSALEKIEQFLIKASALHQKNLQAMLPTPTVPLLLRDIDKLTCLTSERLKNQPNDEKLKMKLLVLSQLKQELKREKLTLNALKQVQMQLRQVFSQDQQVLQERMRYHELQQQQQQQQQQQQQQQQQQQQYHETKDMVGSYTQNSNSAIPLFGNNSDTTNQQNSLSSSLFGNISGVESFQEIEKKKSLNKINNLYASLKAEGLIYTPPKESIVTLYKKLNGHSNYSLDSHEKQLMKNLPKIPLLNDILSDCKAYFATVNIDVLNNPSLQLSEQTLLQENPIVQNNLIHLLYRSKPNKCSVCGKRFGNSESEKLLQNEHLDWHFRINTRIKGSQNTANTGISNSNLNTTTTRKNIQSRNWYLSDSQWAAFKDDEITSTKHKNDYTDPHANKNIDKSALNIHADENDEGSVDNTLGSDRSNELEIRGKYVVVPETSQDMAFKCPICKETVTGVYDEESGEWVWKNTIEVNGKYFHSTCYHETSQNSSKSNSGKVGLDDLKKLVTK
Sequence (Q08685 whole entry, chain 4 of 4, one chain of several): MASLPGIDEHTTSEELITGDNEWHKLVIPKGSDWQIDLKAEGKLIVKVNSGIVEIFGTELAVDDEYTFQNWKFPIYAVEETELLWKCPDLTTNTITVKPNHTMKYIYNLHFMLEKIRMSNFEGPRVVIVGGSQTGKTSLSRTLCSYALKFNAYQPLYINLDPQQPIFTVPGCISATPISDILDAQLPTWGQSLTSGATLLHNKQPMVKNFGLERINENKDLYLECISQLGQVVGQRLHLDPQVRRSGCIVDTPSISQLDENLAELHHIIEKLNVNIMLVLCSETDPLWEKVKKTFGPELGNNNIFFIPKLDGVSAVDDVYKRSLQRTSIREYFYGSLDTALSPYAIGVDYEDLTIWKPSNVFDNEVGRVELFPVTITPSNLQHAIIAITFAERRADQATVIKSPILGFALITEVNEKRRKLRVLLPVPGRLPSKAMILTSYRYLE

Row | Binder | binding result
1 | B1 | no binding
2 | B2 | binds
3 | B3 | binds
4 | B4 | binds
5 | B5 | binds
6 | B6 | no binding

molecular target: Pcf11;Clp1 (Saccharomyces cerevisiae;Saccharomyces …, UniProt P39081;Q08685 1-626;1-445, |); test: EMSA; EMSA: 50 nM RNA, 0.25-4.0 uM protein, protein diluted in 10 mM HEPES pH 7.9, 150 mM NaCl, 0.5 mM Mg(OAc)2, plus 1x loading dye (orange G, glycerol, EDTA); 30 min on ice; native 6% acrylamide/TBE PAGE; details: protein: recombinant;recombinant; tags: 6H;; copies: 1;1; label: 5'-FAM
Sequence (P39081 whole entry, chain 1 of 2): as the sequence (P39081 whole entry, chain 3 of 4, one chain of several) above
Sequence (Q08685 whole entry, chain 2 of 2): as the sequence (Q08685 whole entry, chain 4 of 4, one chain of several) above

Row | Binder | binding result
7 | B1 | no binding
8 | B2 | no binding
9 | B3 | no binding
10 | B4 | binds
11 | B5 | binds
12 | B6 | no binding

molecular target: T1, Rna14;Rna15; test: as above; details: protein: recombinant;recombinant; tags: 6H;; chain copies: 2;2; label: 5'-FAM

Row | Binder | binding result
13 | B1 | no binding
14 | B2 | binds
15 | B3 | binds
16 | B4 | binds
17 | B5 | binds
18 | B6 | no binding

molecular target: T2, Ysh1;Yjr141w; test: as above; details: protein: recombinant;recombinant; tags: ;SII-3C (N-terminal) in Ysh1-Yjr141w; untagged in Ysh1-Mpe1-Yjr141w; copies: 1;1; label: 5'-FAM

Row | Binder | binding result
19 | B1 | no binding
20 | B2 | no binding
21 | B3 | no binding
22 | B4 | no binding
23 | B5 | no binding
24 | B6 | no binding
